Target: BD-G72(95-153) (UniProt P59103)
Experiment: two-hybrid; β-galactosidase activity of AH109 transformants grown in SD/-2 broth at 30 °C, normalised to yeast with the AD and BD tags alone

BD-G72(95-153), sequence (P59103 95-153): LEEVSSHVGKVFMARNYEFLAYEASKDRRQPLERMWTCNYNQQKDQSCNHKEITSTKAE

β-galactosidase activity as percent of AD-DAO/BD-G72: 38%
β-galactosidase activity relative to the BD/AD tag baseline: 1.81 fold
Substance: AD-DAO (D-amino acid oxidase N-terminally tagged with the activation domain) (from UniProt P14920 1-347) (enzyme)
